Laboratory results: the supplement of paper PMC10567573

B1: PPP2R2B (parent)
chain: PSNRSFFSEIISSISDVKFSHSGR
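Note: lentivirally expressed fusions sorted by FACS into six bins by GFP to DsRed ratio, PSI derived from sequencing read proportions per bin multiplied by bin number.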

Variants of: B1
Test: protein stability index of a GFP-peptide fusion (GPS, HEK-293T) (PSI 1-6); higher = more stable
Conditions: c terminus: a fixed tail appended
For I11H, the protein stability index was 3.46.
With I11F the protein stability index was 4.67.
In the case of I11G, the protein stability index is reported as 3.36.
For I11S, the protein stability index was 3.2.
Work on I11C yielded a protein stability index of 4.01.
Variant I11N has a protein stability index of 3.21.
Variant I11Y has a protein stability index of 3.4.
Work on I11D yielded a protein stability index of 3.46.
Work on I11M yielded a protein stability index of 2.69.
I11P showed a protein stability index of 3.57.
In the case of S13L, the protein stability index is reported as 2.45.
In the case of S13W, the protein stability index is reported as 2.34.
Work on S13H yielded a protein stability index of 2.67.
Variant S13E has a protein stability index of 3.26.
For S13K, the protein stability index was 2.19.
In the case of S13V, the protein stability index is reported as 1.99.
For S13N, the protein stability index was 2.79.
Work on S8C yielded a protein stability index of 1.7.
In the case of S8P, the protein stability index is reported as 2.69.
S8K gave a protein stability index of 2.36.
Work on S8N yielded a protein stability index of 2.44.
For S8L, the protein stability index was 2.04.
For S8G, the protein stability index was 2.41.
S12L showed a protein stability index of 1.69.
Variant S12V has a protein stability index of 1.82.
S12C gave a protein stability index of 2.06.
S12W gave a protein stability index of 1.98.
S12N gave a protein stability index of 2.5.
Work on P1K yielded a protein stability index of 2.56.
P1C showed a protein stability index of 2.05.
Variant P1E has a protein stability index of 2.42.
With P1F the protein stability index was 1.89.
For P1R, the protein stability index was 2.34.
Work on P1G yielded a protein stability index of 2.69.
Variant P1H has a protein stability index of 1.8.
H21F showed a protein stability index of 1.88.
With H21Y the protein stability index was 1.97.
Variant H21S has a protein stability index of 1.93.
H21L showed a protein stability index of 2.03.
H21T showed a protein stability index of 2.11.
In the case of H21K, the protein stability index is reported as 2.85.
H21N gave a protein stability index of 2.48.
With F19D the protein stability index was 3.52.
Work on F19W yielded a protein stability index of 1.97.
Work on F19S yielded a protein stability index of 3.3.
Variant F19C has a protein stability index of 3.03.
For F19N, the protein stability index was 3.15.
With F19L the protein stability index was 2.93.
F19K gave a protein stability index of 3.02.
For F19M, the protein stability index was 2.88.
For F19Y, the protein stability index was 2.57.
Variant S20E has a protein stability index of 2.94.
With S20H the protein stability index was 2.18.
Work on S20Y yielded a protein stability index of 1.75.
With S20K the protein stability index was 2.7.
In the case of S15W, the protein stability index is reported as 2.34.
Variant S15R has a protein stability index of 2.25.
S15Y showed a protein stability index of 2.05.
Work on S15M yielded a protein stability index of 2.08.
With S15E the protein stability index was 2.93.
With S15L the protein stability index was 2.13.
Work on S15K yielded a protein stability index of 2.35.
For S15D, the protein stability index was 2.83.
S15N showed a protein stability index of 2.77.
For N3G, the protein stability index was 2.19.
Variant N3K has a protein stability index of 2.12.
N3V showed a protein stability index of 1.74.
N3H gave a protein stability index of 2.72.
Variant N3L has a protein stability index of 2.17.
Work on N3I yielded a protein stability index of 1.83.
For N3A, the protein stability index was 2.27.
For N3M, the protein stability index was 2.13.
In the case of N3Q, the protein stability index is reported as 2.4.
N3P gave a protein stability index of 2.49.
For I10R, the protein stability index was 2.79.
For I10K, the protein stability index was 3.11.
I10L gave a protein stability index of 1.79.
In the case of I10W, the protein stability index is reported as 2.33.
I10E gave a protein stability index of 3.64.
In the case of I10M, the protein stability index is reported as 2.62.
I10P gave a protein stability index of 3.44.
I14F showed a protein stability index of 2.17.
In the case of I14P, the protein stability index is reported as 3.05.
With I14Q the protein stability index was 3.18.
For I14H, the protein stability index was 2.79.
Variant I14M has a protein stability index of 2.6.
With I14N the protein stability index was 3.05.
In the case of I14A, the protein stability index is reported as 2.79.
Variant I14D has a protein stability index of 3.04.
In the case of G23N, the protein stability index is reported as 2.79.
With G23I the protein stability index was 1.88.
G23P showed a protein stability index of 2.74.
G23T showed a protein stability index of 2.14.
Work on G23V yielded a protein stability index of 1.66.
In the case of S5P, the protein stability index is reported as 2.88.
Work on S5A yielded a protein stability index of 2.31.
Variant S5W has a protein stability index of 2.1.
With S5D the protein stability index was 2.46.
S5H showed a protein stability index of 2.91.
S5E gave a protein stability index of 2.9.
With S5R the protein stability index was 2.64.
For V17C, the protein stability index was 2.4.
V17G gave a protein stability index of 2.53.
For V17Q, the protein stability index was 2.81.
V17L gave a protein stability index of 2.75.
V17F gave a protein stability index of 2.18.
V17H showed a protein stability index of 3.21.
With K18T the protein stability index was 2.31.
In the case of K18V, the protein stability index is reported as 2.09.
K18S gave a protein stability index of 2.61.
In the case of K18M, the protein stability index is reported as 2.02.
With K18I the protein stability index was 2.33.
In the case of K18R, the protein stability index is reported as 2.55.
K18E showed a protein stability index of 2.35.
F6V gave a protein stability index of 2.66.
Variant F6C has a protein stability index of 2.38.
For F6R, the protein stability index was 3.02.
Work on F6M yielded a protein stability index of 2.76.
F6N gave a protein stability index of 2.9.
For F6S, the protein stability index was 3.07.
Work on F6W yielded a protein stability index of 2.32.
Work on F6Y yielded a protein stability index of 2.52.
In the case of F6A, the protein stability index is reported as 3.05.
For F7H, the protein stability index was 3.32.
For F7A, the protein stability index was 3.38.
Work on F7M yielded a protein stability index of 2.79.
F7N showed a protein stability index of 3.48.
Variant F7Q has a protein stability index of 3.64.
For F7Y, the protein stability index was 2.51.
Variant F7P has a protein stability index of 2.87.
With F7K the protein stability index was 3.26.
For F7D, the protein stability index was 3.56.
With S22Y the protein stability index was 2.2.
S22D gave a protein stability index of 2.79.
S22Q gave a protein stability index of 2.43.
Work on R24Y yielded a protein stability index of 3.23.
Variant R24P has a protein stability index of 2.31.
In the case of R24Q, the protein stability index is reported as 2.39.
R24A showed a protein stability index of 2.36.
With R24T the protein stability index was 2.33.
Variant R24C has a protein stability index of 1.87.
R24F showed a protein stability index of 1.65.
Variant S2A has a protein stability index of 2.54.
Work on S2C yielded a protein stability index of 2.4.
With S2T the protein stability index was 2.44.
Variant S2Y has a protein stability index of 2.64.
Variant S2E has a protein stability index of 2.55.
S2G showed a protein stability index of 2.66.
S2R showed a protein stability index of 2.61.
For S2H, the protein stability index was 2.44.
In the case of E9C, the protein stability index is reported as 2.03.
For E9Y, the protein stability index was 1.95.
In the case of E9V, the protein stability index is reported as 2.15.
R4E gave a protein stability index of 2.81.
Variant R4Q has a protein stability index of 2.66.
R4M gave a protein stability index of 2.1.
In the case of R4W, the protein stability index is reported as 1.4.
Variant R4K has a protein stability index of 2.54.
D16G gave a protein stability index of 2.29.
Variant D16L has a protein stability index of 2.05.
Variant D16P has a protein stability index of 2.56.
In the case of D16T, the protein stability index is reported as 2.28.
Variant D16W has a protein stability index of 1.99.
Variant D16S has a protein stability index of 1.92.
D16C gave a protein stability index of 1.92.
D16A showed a protein stability index of 2.34.
D16M showed a protein stability index of 2.02.
